One block for each substance: values may come before it.
How the values were obtained:
[1] = molecular target: tumor necrosis factor alpha (TNF-α), R&D Systems 210-TA-005 (UniProt P01375); assay: SPR (Biacore T200), 1:1 global fit
[2] = molecular target: tumor necrosis factor alpha (TNF-α), R&D Systems 210-TA-005 (UniProt P01375); assay: t-PLA, buffer; TNF-α 1.00E-10 M
[3] = molecular target: tumor necrosis factor alpha (TNF-α), R&D Systems 210-TA-005 (UniProt P01375); assay: c-PLA 1X probes, buffer; TNF-α 1.00E-11 M
[4] = molecular target: tumor necrosis factor alpha (TNF-α), R&D Systems 210-TA-005 (UniProt P01375); assay: t-PLA, buffer; TNF-α 1.00E-12 M
[5] = molecular target: tumor necrosis factor alpha (TNF-α), R&D Systems 210-TA-005 (UniProt P01375); assay: t-PLA 10X probes, human plasma; TNF-α 1.00E-12 M
[6] = molecular target: tumor necrosis factor alpha (TNF-α), R&D Systems 210-TA-005 (UniProt P01375); assay: t-PLA, buffer; TNF-α 1.00E-11 M
[7] = molecular target: tumor necrosis factor alpha (TNF-α), R&D Systems 210-TA-005 (UniProt P01375); assay: t-PLA, buffer; TNF-α 5.00E-07 M
[8] = molecular target: tumor necrosis factor alpha (TNF-α), R&D Systems 210-TA-005 (UniProt P01375); assay: t-PLA 10X probes, human plasma; TNF-α 1.00E-11 M
[9] = molecular target: tumor necrosis factor alpha (TNF-α), R&D Systems 210-TA-005 (UniProt P01375); assay: c-PLA 1X probes, human plasma; TNF-α 1.00E-11 M
[10] = molecular target: tumor necrosis factor alpha (TNF-α), R&D Systems 210-TA-005 (UniProt P01375); assay: t-PLA 1X probes, buffer; TNF-α 1.00E-09 M
[11] = molecular target: tumor necrosis factor alpha (TNF-α), R&D Systems 210-TA-005 (UniProt P01375); assay: SPR (Biacore T200), biotinylated antibody on CAP chip, 1:1 fit
[12] = molecular target: tumor necrosis factor alpha (TNF-α), R&D Systems 210-TA-005 (UniProt P01375); assay: t-PLA 10X probes, human plasma; TNF-α 5.00E-07 M
[13] = molecular target: tumor necrosis factor alpha (TNF-α), R&D Systems 210-TA-005 (UniProt P01375); assay: t-PLA 10X probes, buffer; TNF-α 1.00E-11 M
[14] = molecular target: tumor necrosis factor alpha (TNF-α), R&D Systems 210-TA-005 (UniProt P01375); assay: c-PLA 10X probes, buffer; TNF-α 1.00E-09 M
[15] = molecular target: vascular endothelial growth factor (VEGF), R&D Systems 293-VE-010 (human) (UniProt P15692); assay: SPR (Biacore T200), 1:1 global fit
Chain of UniProt P15692 (P15692 other isoform, or with tags, fused parts or gaps limits assumed): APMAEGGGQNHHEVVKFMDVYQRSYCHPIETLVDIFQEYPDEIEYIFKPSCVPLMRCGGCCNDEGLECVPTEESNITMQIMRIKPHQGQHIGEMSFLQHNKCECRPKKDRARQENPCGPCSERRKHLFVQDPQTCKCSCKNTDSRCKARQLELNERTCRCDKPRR

[16] = molecular target: vascular endothelial growth factor (VEGF), R&D Systems 293-VE-010 (human) (UniProt P15692); assay: c-PLA, chicken plasma; VEGF 1.00E-10 M
[17] = molecular target: vascular endothelial growth factor (VEGF), R&D Systems 293-VE-010 (human) (UniProt P15692); assay: c-PLA, buffer; VEGF 1.00E-11 M
[18] = molecular target: vascular endothelial growth factor (VEGF), R&D Systems 293-VE-010 (human) (UniProt P15692); assay: t-PLA, chicken plasma; VEGF 1.00E-11 M
[19] = molecular target: vascular endothelial growth factor (VEGF), R&D Systems 293-VE-010 (human) (UniProt P15692); assay: c-PLA, human plasma; VEGF 1.00E-08 M
[20] = molecular target: vascular endothelial growth factor (VEGF), R&D Systems 293-VE-010 (human) (UniProt P15692); assay: t-PLA, chicken plasma; VEGF 1.00E-14 M
[21] = molecular target: vascular endothelial growth factor (VEGF), R&D Systems 293-VE-010 (human) (UniProt P15692); assay: t-PLA, human plasma; VEGF 1.00E-11 M
[22] = molecular target: vascular endothelial growth factor (VEGF), R&D Systems 293-VE-010 (human) (UniProt P15692); assay: t-PLA, chicken plasma; VEGF 1.00E-13 M
[23] = molecular target: vascular endothelial growth factor (VEGF), R&D Systems 293-VE-010 (human) (UniProt P15692); assay: c-PLA with preamplification; VEGF 1.00E-13 M
[24] = molecular target: vascular endothelial growth factor (VEGF), R&D Systems 293-VE-010 (human) (UniProt P15692); assay: c-PLA, human plasma; VEGF 1.00E-14 M
[25] = molecular target: vascular endothelial growth factor (VEGF), R&D Systems 293-VE-010 (human) (UniProt P15692); assay: c-PLA, human plasma; VEGF 1.00E-13 M
[26] = molecular target: vascular endothelial growth factor (VEGF), R&D Systems 293-VE-010 (human) (UniProt P15692); assay: t-PLA, buffer; VEGF 1.00E-11 M
[27] = molecular target: vascular endothelial growth factor (VEGF), R&D Systems 293-VE-010 (human) (UniProt P15692); assay: c-PLA, buffer; VEGF 1.00E-09 M
[28] = molecular target: vascular endothelial growth factor (VEGF), R&D Systems 293-VE-010 (human) (UniProt P15692); assay: SPR (Biacore T200), biotinylated antibody on CAP chip, 1:1 fit
[29] = molecular target: vascular endothelial growth factor (VEGF), R&D Systems 293-VE-010 (human) (UniProt P15692); assay: c-PLA, chicken plasma; VEGF 1.00E-14 M

Chain of UniProt P01375 (P01375 77-233 limits assumed): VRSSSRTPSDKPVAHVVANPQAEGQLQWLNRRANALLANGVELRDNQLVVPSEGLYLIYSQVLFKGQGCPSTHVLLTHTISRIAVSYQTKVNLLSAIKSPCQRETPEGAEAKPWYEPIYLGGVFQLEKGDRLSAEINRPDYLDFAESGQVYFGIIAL

Substance: affinity-purified polyclonal anti-TNF-α antibody (R&D Systems AF-210-NA)
- Kd [1]: 0.279 nM
- SBR [2]: 15.9
- Counts [3]: 22.1
- SBR [3]: 1.4
- Counts [4]: 1.65e+06
- SBR [4]: 9.7
- SBR [5]: 2.4
- Counts [6]: 443000
- SBR [6]: 2.6
- Counts [7]: 1.33e+08
- SBR [7]: 780
- Counts [8]: 4.13e+06
- Counts [9]: 105
- SBR [9]: 1.4
- Counts [10]: 1.98e+07
- Kd [11]: 0.28 nM
- Counts [12]: 2.25e+09
- SBR [12]: 198
- Counts [13]: 7.03e+06
- SBR [13]: 1.2
- Counts [14]: 80000
- SBR [14]: 437

- Kd [15]: 0.0036 nM
- Counts [16]: 26800
- SBR [16]: 2900
- Counts [17]: 4820
- SBR [17]: 162
- Counts [18]: 7.94e+06
- SBR [18]: 119
- Counts [19]: 24800
- SBR [19]: 96
- Counts [20]: 71600
- SBR [20]: 1.1
- Counts [21]: 7.15e+06
- Counts [22]: 133000
- Counts [23]: 95500
- SBR [23]: 1.6
- Counts [24]: 292
- SBR [24]: 1.1
- Counts [25]: 310
- SBR [25]: 1.2
- Counts [26]: 4.21e+07
- SBR [26]: 122
- Counts [27]: 778000
- SBR [27]: 26200
- Kd [28]: 0.0036 nM
- Counts [29]: 10.7
- SBR [29]: 1.2
Substance: affinity-purified polyclonal anti-VEGF antibody (R&D Systems AF-293-NA)

Source: patent US20190360025A1
